Experimental data from doi:10.1101/2025.11.26.690650 (bioRxiv, 2025).
Read-outs that look alike come from different tables or passages of the source.

How the values were obtained:
[1] = target: TCV P38_W274A (Turnip crinkle virus) (UniProt P06663); assay: native MS
[2] = target: T1, TCV P38 (capsid protein, VSR) wild type (Turnip crinkle virus (pTCV cDNA), UniProt P06663 1-351); assay: EMSA
T1 sequence: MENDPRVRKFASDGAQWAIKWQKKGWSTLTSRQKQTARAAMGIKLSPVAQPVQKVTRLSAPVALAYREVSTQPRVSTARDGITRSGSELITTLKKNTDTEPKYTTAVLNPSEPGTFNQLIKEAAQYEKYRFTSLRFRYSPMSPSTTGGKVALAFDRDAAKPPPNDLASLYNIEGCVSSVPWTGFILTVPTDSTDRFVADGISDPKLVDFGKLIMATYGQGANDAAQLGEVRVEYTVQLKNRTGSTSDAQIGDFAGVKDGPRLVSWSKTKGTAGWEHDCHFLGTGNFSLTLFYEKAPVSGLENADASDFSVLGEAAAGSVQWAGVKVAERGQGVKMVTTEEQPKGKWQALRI

[3] = target: T1, TCV P38 (capsid protein, VSR) wild type; assay: competition
[4] = target: T1, TCV P38 (capsid protein, VSR) wild type; assay: competition; remark: listed apart in the source
[5] = target: T1, TCV P38 (capsid protein, VSR) wild type; assay: competition; remark: listed apart in the source
[6] = target: T1, TCV P38 (capsid protein, VSR) wild type; assay: EMSA; remark: listed apart in the source
[7] = target: T1, TCV P38 (capsid protein, VSR) wild type; assay: EMSA; remark: listed apart in the source
AUC = target: the molecule itself; assay: AUC
crystal structure = target: the molecule itself; assay: crystal structure

For “TCV P38_W274A (from UniProt P06663 1-351) (natural protein)”, the stoichiometry N [1] was 2.

B1: NbmiR403a (dsRNA)
RNA 1: UUAGAUUCACGCACAAACUCG
RNA 2: UGUUUGUGCGUGAAUCUGACA
modifications: 5'-phosphate
B1 was tested, and the Kd [2] was 0.36 ± 0.05 nM.

B2: siR gf698_22 (dsRNA)
RNA 1: UAGUUCAUCCAUGCCAUGUGUA
RNA 2: CACAUGGCAUGGAUGAACUAUA
modifications: 5'-phosphate
With B2 the Ki [3] was 0.35 ± 0.1 nM, the Ki [4] was 0.18 ± 0.05 nM and the Ki [5] was 0.57 ± 0.06 nM. The Kd [2] was 0.53 ± 0.07 nM.

UAGUUCAUCCAUGCCAUGUGU (ssRNA, 5'-phosphate) [ss gf698_21]: no binding [6].

B3: dsRNA_33 (dsRNA)
RNA 1: CUAAGAUGCUCGCUGCCAAUGAACGACCCUCCCUAA
RNA 2: UUAGGGAGGGUCGUUCAUUGGCAGCGAGCAUCU
modifications: 5'-phosphate
Work on B3 yielded a Ki [3] of 0.06 ± 0.01 nM, a Kd [7] of 0.77 ± 0.05 nM and a Ki [4] of 0.14 ± 0.03 nM. It also gave a Ki [5] of 0.07 ± 0.03 nM.

B4: AtmiR162 (dsRNA)
RNA 1: UCGAUAAACCUCUGCAUCCAG
RNA 2: GGAGGCAGCGGUUCAUCGAUC
modifications: 5'-phosphate
In the case of B4, the Ki [3] is reported as 0.33 ± 0.17 nM, the Ki [5] is reported as 0.5 ± 0.15 nM and the Kd [2] is reported as 0.3 ± 0.03 nM.

B5: Turnip crinkle virus P38 protein (TCV P38), wildtype (natural protein, UniProt P06663 1-351, looked up)
chain: T1 sequence
With B5 the “stoichiometry N” value (AUC) was 2 and the “stoichiometry N” value (crystal structure) was 60.

B6: AtmiR403a (dsRNA)
RNA 1: UUAGAUUCACGCACAAACUCG
RNA 2: UGUUUUGUGCUUGAAUCUAAUU
modifications: 5'-phosphate
Molecule B6 has a Kd [2] of 0.87 ± 0.13 nM.

B7: siR gf698_24 (dsRNA)
RNA 1: UAGUUCAUCCAUGCCAUGUGUAAU
RNA 2: UACACAUGGCAUGGAUGAACUAUA
modifications: 5'-phosphate
B7 was tested, and the Ki [3] was 0.33 ± 0.08 nM, the Ki [4] was 0.4 ± 0.1 nM and the Ki [5] was 0.33 ± 0.03 nM. The Kd [2] was 0.44 ± 0.09 nM.

B8: AtmiR168 (dsRNA)
RNA 1: UCGCUUGGUGCAGGUCGGGAA
RNA 2: CCCGCCUUGCAUCAACUGAAU
modifications: 5'-phosphate
With B8 the Ki [3] was 0.7 ± 0.2 nM, the Ki [5] was 0.95 ± 0.3 nM and the Kd [2] was 0.55 ± 0.05 nM.

B9: NbmiR403b (dsRNA)
RNA 1: UUAGAUUCACGCACAAACUCG
RNA 2: UGUUUGUGCGUGAUUCUGACA
modifications: 5'-phosphate
With B9 the Kd [2] was 1.27 ± 0.1 nM.

UAGUUCAUCCAUGCCAUGUGUAAU (ssRNA, 5'-phosphate) [ss gf698_24]: no binding [6].

B10: siR gf698_21 (dsRNA)
RNA 1: UAGUUCAUCCAUGCCAUGUGU
RNA 2: ACAUGGCAUGGAUGAACUAUA
modifications: 5'-phosphate
B10 showed a Ki [5] of 0.7 ± 0.07 nM and a Kd [2] of 0.56 ± 0.09 nM.
